Experimental data published in the supplement of paper PMC7877785.
± gives the uncertainty stated by the source.

Assay: self-splicing fitness, log relative to wild type (ln ratio); higher = more splicing; Tetrahymena group I intron in knt gene, E. coli kanamycin selection, DiMSum; sequences stand for … in CUCUCU…GGAGGGAAAAGUUAUCAGGCAUGCACCUGGUAGCUAGUCUUUAAACCAAUAGAUUGCAUCGGUUUAAAAGGCAAGACCGUCAAAUUGCGGGAAAGGGGUCAACAGCCGUUCAGUACCAAGUCUCAGGGGAAACUUUGAGAUGGCCUUGCAAAGGGUAUGGUAAUAAGCUGACGGACAUGGUCCUAACCACGCAGCCAAGUCCUAAGUCAACAGAUCUUCUGUUGAUAUGGAUGCAGUUCACAGACUAAAUGUCGGUCGGGGAAGAUGUAUUCUUCUCAUAAGAUAUAGUCGGACCUCUCCUUAAUGGGAGCUAGCGGAUGAAGUGAUGCAACACUGGAGCCGCUGGGAACUAAUUUGUAUGCGAAAGUAUAUUGAUUAGUUUUGGAGUACUCGUGGUCG
Outline: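 DiMSum derived fitness as the error-weighted combination of fold changes across replicates, kanamycin versus no kanamycin, normalised to wild type. E. coli BL21(DE3) held the library, which randomised all eight P1ex-region intron nucleotides within the knt kanamycin-resistance gene on pET-22b(+). Six replicate transformations grew overnight at 37°C or 30°C on LB agar with or without 25 μg/mL kanamycin, also containing 100 μg/mL carbenicillin, 50 μM IPTG and 0.2% rhamnose, and pooled colonies were amplicon-sequenced on an Illumina HiSeq 2500.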

| Sequence | self-splicing fitness (ln) (30 °C) | self-splicing fitness (ln) (37 °C) |
| --- | --- | --- |
| ACACAGCAAUAUUACGUACU | -0.335 ± 0.05 | 0.175 ± 0.065 |
| ACACAGCAAUAUUACGUCAU | -2.34 ± 0.072 | -2.33 ± 0.094 |
| ACACAGCAAUAUUACGUCCG | -1.3 ± 0.079 | 0.213 ± 0.11 |
| ACAGAGCAAUAUUACGAAUC | -2.92 ± 0.36 |  |
| ACAGAGCAAUAUUACGAAUG | -3.82 ± 0.16 | -2.51 ± 0.19 |
| ACAGAGCAAUAUUACGACUU | -2.44 ± 0.16 | -1.52 ± 0.15 |
| ACAGAGCAAUAUUACGAGCU | -3.43 ± 0.18 | -2.22 ± 0.22 |
| ACAGAGCAAUAUUACGCAAU | -3.59 ± 0.32 | -2.42 ± 0.32 |
| ACAGAGCAAUAUUACGCACU | -3.25 ± 0.17 | -1.33 ± 0.14 |
| ACAGAGCAAUAUUACGCAUU | -4.18 ± 0.27 | -2.99 ± 0.31 |
| ACAGAGCAAUAUUACGCCAG | -2.37 ± 0.35 | -1.71 ± 0.49 |
| ACAGAGCAAUAUUACGCCGC | -3.09 ± 0.48 | -1.07 ± 0.36 |
| ACAGAGCAAUAUUACGCGUU |  | -1.16 ± 0.29 |
| ACAGAGCAAUAUUACGGAGA | -3.21 ± 0.26 | -2.6 ± 0.29 |
| ACAGAGCAAUAUUACGGCUG | -0.984 ± 0.096 | -0.796 ± 0.13 |
| ACAGAGCAAUAUUACGGGAU | -3.52 ± 0.11 | -3.03 ± 0.15 |
| ACAGAGCAAUAUUACGGUAA | -3.43 ± 0.25 | -2.26 ± 0.23 |
| ACAGAGCAAUAUUACGUAGU | -1.7 ± 0.14 | -2.87 ± 0.21 |
| ACAGAGCAAUAUUACGUAUG | -2.91 ± 0.17 | -3.39 ± 0.37 |
| ACAGAGCAAUAUUACGUCAG | -3.02 ± 0.13 | -2.43 ± 0.2 |
| ACAGAGCAAUAUUACGUGCU | -4.27 ± 0.37 | -2.48 ± 0.41 |
| ACAGAGCAAUAUUACGUGGU | -3.82 ± 0.2 | -2.37 ± 0.21 |
| ACAGAGCAAUAUUACGUUGG | -2.73 ± 0.16 | -3.57 ± 0.19 |
| ACAGAGCAAUAUUACGUUUU | -3.47 ± 0.24 | -3.26 ± 0.32 |

| Sequence | self-splicing fitness (ln) (30 °C) | self-splicing fitness (ln) (37 °C) |
| --- | --- | --- |
| ACAUAGCAAUAUUACGAAGA | -3.19 ± 0.18 | -2.72 ± 0.16 |
| ACAUAGCAAUAUUACGACGG | -1 ± 0.091 | -0.32 ± 0.12 |
| ACAUAGCAAUAUUACGAGGC | -4.03 ± 0.36 | -2.2 ± 0.32 |
| ACAUAGCAAUAUUACGAUUU | -0.687 ± 0.062 | -0.157 ± 0.081 |
| ACAUAGCAAUAUUACGCAAA | -3.29 ± 0.16 | -2.25 ± 0.14 |
| ACAUAGCAAUAUUACGCACA | -0.98 ± 0.099 | -0.0165 ± 0.12 |
| ACAUAGCAAUAUUACGCACG | -2.07 ± 0.2 | -1.01 ± 0.15 |
| ACAUAGCAAUAUUACGCACU | -0.38 ± 0.083 | 0.676 ± 0.1 |
| ACAUAGCAAUAUUACGCCUU | -1.25 ± 0.083 | -0.057 ± 0.085 |
| ACAUAGCAAUAUUACGCGCC | -0.408 ± 0.16 | 0.199 ± 0.26 |
| ACAUAGCAAUAUUACGCUAU | -2.9 ± 0.13 | -2.38 ± 0.2 |
| ACAUAGCAAUAUUACGCUGC | -2.01 ± 0.22 | -0.747 ± 0.15 |
| ACAUAGCAAUAUUACGCUGG | -2.36 ± 0.11 | -1.46 ± 0.12 |
| ACAUAGCAAUAUUACGGCAU | -1.06 ± 0.072 | -0.486 ± 0.079 |
| ACAUAGCAAUAUUACGGCGG | -1.04 ± 0.049 | -0.52 ± 0.072 |
| ACAUAGCAAUAUUACGGGAU | -1.88 ± 0.1 | -0.904 ± 0.12 |
| ACAUAGCAAUAUUACGGGUA | -2.8 ± 0.19 | -2.35 ± 0.14 |
| ACAUAGCAAUAUUACGGGUC | -3.93 ± 0.25 | -3.24 ± 0.28 |
| ACAUAGCAAUAUUACGGUCC | -1.91 ± 0.087 | -1.77 ± 0.11 |
| ACAUAGCAAUAUUACGUAAA | -1.66 ± 0.12 | -1.75 ± 0.21 |
| ACAUAGCAAUAUUACGUACC | -0.809 ± 0.17 | 0.0877 ± 0.2 |
| ACAUAGCAAUAUUACGUAGC | -2.78 ± 0.13 | -2.04 ± 0.19 |
| ACAUAGCAAUAUUACGUAGG | -3.02 ± 0.13 | -1.84 ± 0.12 |
| ACAUAGCAAUAUUACGUCUG | -1.24 ± 0.071 | -0.845 ± 0.09 |

| Sequence | self-splicing fitness (ln) (30 °C) | self-splicing fitness (ln) (37 °C) |
| --- | --- | --- |
| ACCAAGCAAUAUUACGAAAU | -2.89 ± 0.12 | -2.08 ± 0.15 |
| ACCAAGCAAUAUUACGAACU | -0.54 ± 0.061 | -0.819 ± 0.08 |
| ACCAAGCAAUAUUACGACAA | -2.14 ± 0.15 | -1.11 ± 0.12 |
| ACCAAGCAAUAUUACGACAU | -1.04 ± 0.011 | -0.296 ± 0.032 |
| ACCAAGCAAUAUUACGAGUC | -3.65 ± 0.2 | -1.25 ± 0.15 |
| ACCAAGCAAUAUUACGAUUA | -2.23 ± 0.11 | -1.03 ± 0.085 |
| ACCAAGCAAUAUUACGAUUU | -1.51 ± 0.041 | -1.26 ± 0.054 |
| ACCAAGCAAUAUUACGCAUA | -1.77 ± 0.068 | -1.44 ± 0.073 |
| ACCAAGCAAUAUUACGCCAC | -1.48 ± 0.31 | -2.12 ± 0.3 |
| ACCAAGCAAUAUUACGCGCU | -0.723 ± 0.07 | 0.206 ± 0.089 |
| ACCAAGCAAUAUUACGCUAA | -3.3 ± 0.16 | -2.33 ± 0.14 |
| ACCAAGCAAUAUUACGCUCC | -1.35 ± 0.17 | -0.621 ± 0.25 |
| ACCAAGCAAUAUUACGGAAA | -3.14 ± 0.18 | -1.9 ± 0.13 |
| ACCAAGCAAUAUUACGGCUA | -0.574 ± 0.065 | -0.0302 ± 0.07 |
| ACCAAGCAAUAUUACGGUAU | -3.45 ± 0.13 | -0.475 ± 0.094 |
| ACCAAGCAAUAUUACGUGAC | -3.55 ± 0.13 | -1.99 ± 0.11 |
| ACCAAGCAAUAUUACGUGCU | -1.7 ± 0.096 | -0.864 ± 0.096 |
| ACCCAGCAAUAUUACGAAAC | -2.77 ± 0.12 | -1.04 ± 0.15 |
| ACCCAGCAAUAUUACGAAAU | -1.42 ± 0.07 | -1.21 ± 0.083 |
| ACCCAGCAAUAUUACGAAGA | -1.74 ± 0.12 | -1.36 ± 0.15 |
| ACCCAGCAAUAUUACGAAGC | -0.907 ± 0.069 | -0.523 ± 0.072 |
| ACCCAGCAAUAUUACGACGG | -1.39 ± 0.078 | -0.9 ± 0.086 |
| ACCCAGCAAUAUUACGAGGG | -3.43 ± 0.15 | -2.47 ± 0.17 |
| ACCCAGCAAUAUUACGCACU | -0.41 ± 0.064 | 0.0872 ± 0.077 |

| Sequence | self-splicing fitness (ln) (30 °C) | self-splicing fitness (ln) (37 °C) |
| --- | --- | --- |
| ACCCAGCAAUAUUACGCAGU | -0.609 ± 0.055 | -0.106 ± 0.066 |
| ACCCAGCAAUAUUACGCAUC | -1.33 ± 0.076 | 0.0782 ± 0.098 |
| ACCCAGCAAUAUUACGCGUG | -3.53 ± 0.17 | -1.9 ± 0.13 |
| ACCCAGCAAUAUUACGCUAC | -4.01 ± 0.27 | -2.38 ± 0.19 |
| ACCCAGCAAUAUUACGCUCC | -0.481 ± 0.099 | -0.338 ± 0.14 |
| ACCCAGCAAUAUUACGCUUU | -0.704 ± 0.049 | 0.0854 ± 0.064 |
| ACCCAGCAAUAUUACGGACC | -0.974 ± 0.073 | -0.347 ± 0.089 |
| ACCCAGCAAUAUUACGGCCG | -2.81 ± 0.15 | -2.6 ± 0.19 |
| ACCCAGCAAUAUUACGGGAG | -1.23 ± 0.059 | -1.05 ± 0.082 |
| ACCCAGCAAUAUUACGGUAC | -2.51 ± 0.081 | -0.741 ± 0.078 |
| ACCCAGCAAUAUUACGUAUC | -2.25 ± 0.077 | -1.63 ± 0.092 |
| ACCCAGCAAUAUUACGUCCA | -1.27 ± 0.12 | -0.696 ± 0.16 |
| ACCCAGCAAUAUUACGUCGG | -2.15 ± 0.073 | -0.593 ± 0.088 |
| ACCCAGCAAUAUUACGUCUG | -3.16 ± 0.12 | -2.79 ± 0.14 |
| ACCCAGCAAUAUUACGUGAC | -1.07 ± 0.047 | -1.25 ± 0.085 |
| ACCCAGCAAUAUUACGUGCC | -1.98 ± 0.08 | -0.963 ± 0.1 |
| ACCCAGCAAUAUUACGUUAC | -3.24 ± 0.14 | -1.13 ± 0.14 |
| ACCCAGCAAUAUUACGUUCG | -3.74 ± 0.14 | -1.26 ± 0.088 |
| ACCGAGCAAUAUUACGAGUA | -3.23 ± 0.27 | -3.5 ± 0.35 |
| ACCGAGCAAUAUUACGCAUC | -1.14 ± 0.17 |  |
| ACCGAGCAAUAUUACGCCAA |  | -2.01 ± 0.3 |
| ACCGAGCAAUAUUACGCUCG | -3.22 ± 0.32 | -1.61 ± 0.2 |
| ACCGAGCAAUAUUACGCUGA | -3.32 ± 0.24 | -1.24 ± 0.16 |
| ACCGAGCAAUAUUACGCUGC | -2.73 ± 0.16 | -2.5 ± 0.23 |
